From patent US11904004B2, “Anti-CD277 antibodies” (INSTITUT NATIONAL DE LA SANTE ET DE LA RECHERCHE MEDICALE …, priority 2010, dated 2024)

What was measured:
Type in all cases: cell-based, human
CD4+ T cells [1] = assay: AKT and ERK phosphorylation, phosphoflow
Description: Human CD4^+ T cells were purified by negative selection from PBMCs using magnetic beads (MILTENYI BIOTEC®) according to the manufacturer's protocol. CD4 T cells were routinely more than 97% pure. Cells were incubated 24 hours in RPMI 1640 10% FBS at 37° C.
CD4^+ T cells were washed and stimulated at different times (2, 5, 10 and 30 minutes) with aAPC at a ratio of 1:3 (cells to beads) comprised of magnetic beads (DYNABEADS® M-450 Epoxy, Dynal Biotech) were coated with the following mAbs: anti-CD3 (OKT3), anti-human CD28 (CD28.2), and/or various concentrations of anti-human CD277 (CD277. 20.1 clone) or isotype control IgG1. These aAPCs were coated with suboptimal anti-CD3 Ab (5%), suboptimal levels of anti-CD28 Ab (10%), and either IgG1 Ab (CD3/CD28/IgG1), anti-CD277.20.1 Ab (CD3/CD28/CD277.20.1+IgG1), constituting the remaining 85% of protein added to the bead. The amount of protein was kept constant at […] by the addition of control IgG1. We examined the effect of mAbs CD277 clones engagement on AKT and ERK phosphorylation in CD4+T cells by PHOSPHOFLOW® proteomic method, which uses state-specific antibodies to detect target phosphoproteins by fluorescence-activated cell sorting (FACS). We assessed the activity of the signalling pathways after exposure of the cells to beads stimulations. We apply a sandwich-labeling method, which involves the application of a biotin-conjugated secondary antibody followed by detection with fluorescently conjugated streptavidin. […] Cells were permeabilized, fixed and analyzed after intracellular staining of the target phosphproteins (AKT and ERK) by the use of CYTOFIX/CYTOPERM® KIT and perm/wash buffer (BD Biosciences).

CD4+ T cells [2] = assay: Functional assay on CD4+ T cells with aAPC, CFSE labeling and cytokine ELISA
Description: Human CD4^+ T cells were purified by negative selection from PBMCs using magnetic beads (Miltenyi Biotec) according to the manufacturer's protocol. CD4+ T cells were routinely more than 97% pure.
CD4^+ T cells were labelled with 0.5 μM CFSE (Invitrogen) for 10 min at 37° C., washed and stimulated (1.5×10^5 cells/well) with aAPC at a ratio of 1:1 (cells to beads) comprised of magnetic beads in triplicate in 96-well round-bottom plates (Falcon; BD Biosciences). Cultures were incubated at 37° C., 5% CO2 for 5 days and then proliferation of CFSE labelled CD4^+ T cells were measured by flow cytometry (FACS Canto, […]).
Magnetic beads (DYNABEADS® M-450 Epoxy, Dynal Biotech) were coated with the following mAbs as described in Serriari et al. (serriari, ji 2010): anti-CD3 (OKT3), anti-human CD28 (CD28.2), and/or various concentrations of anti-human CD277 (CD277, 20.1) or IgG1 or anti-MHC class I (MHC I) (YJ4) or IgG1. These aAPCs were coated with suboptimal anti-CD3 Ab (5%), suboptimal levels of anti-CD28 Ab (10%), and either IgG1 Ab (CD3/CD28/IgG1), anti-CD277 Ab (CD3/CD28/CD277+IgG1) or anti-MHC class I (CD3/28/anti-MHC class I+IgG1), constituting the remaining 85% of protein added to the bead. The amount of protein was kept constant at […] by the addition of control IgG 1. […]

NK cells = assay: Functional assay on NK cells, redirected cytolytic activity
Description: Fresh NK cells were sorted with EASY SEP® negative selection kit and incubated over night in medium completed with sub-optimal concentrations of IL-2 (100 U/ml) and IL-15 (10 ng/ml). NK cell receptors functions were tested in re-directed cytolytic experiments against the FcγR positive P815 mastocytoma murine cell line. Briefly, effector cells were incubated with P815 cells pre-coated for 30 minutes with the mAb of interest (irrelevant mouse IgG1: 11 μg/ml, anti-NKp46: 1 μg/ml, anti-DNAM: 5 μg/ml, anti-CD277 20.1: 10 μg/ml) according to a 1:1 Effector:Target (E/T) ratio. Cytotoxic tests were performed in 4-hours assays in the presence of GOLGISTOP® (protein transport inhibitor) and soluble CD107 (a&b)-FITC (both from BD Biosciences), afterward cells were stained for surface markers (CD56-PeCy7 (Beckman Coulter, Immunotech), fixed and permeabilized (CYTOFIX/CYTOPERM®) then stained with intracellular mAb (IFN-γ (Beckman Coulter, Immunotech)). Cells were finally re-suspended in PBS 2% para-formaldehyde and extemporaneously analyzed on a BD FACS CANTO® (BD Biosciences, San Jose, Calif.). The degree of activation of NK cells was measured based on the percentage of cells positive for CD107a and CD107b (degranulation) and/or the production of inflammatory cytokine (IFN-γ).

primary AML blasts = assay: Chromium release assay, lysis of primary AML blasts by NK cells
Description: Effector γδ T cells were established and maintained as previously described^28. PBMC from HV were stimulated with ZOL (1 μm) and rhlL-2 (200 IU/ml) at Day 0. From Day 5, rhIL-2 was renewed every two days and cells were kept at 1.5×10^6/m1 for 15 days. NK cells were isolated using EASYSEP® Human NK cell enrichment kit (StemCell Technologies). The purity of γδ T cells and NK cells was determined by flow cytometry and respectively greater than 80% and 98%. The Burkitt lymphoma cell line, DAUDI, the human AML cell line, U937, and the erythroleukemic cell line, K562, were obtained from the American Type Culture Collection and cultured (0.5×10^6/ml) in RPMI 1640 medium with 10% FCS. […]
0.5×10^6 target cells were incubated with 50 pCi of ^51Cr (Perkin-Elmer) for AML blasts and 10 pCi for DAUDI and K562 cells for 90 minutes and mixed with effector cells in a Effector:Target (E:T) ratio of […]. After 4 hours of incubation at 37° C., 50p1 supernatant of each sample was transferred in LUMA® plates and radioactivity was determined by a gamma counter. The percentage of specific lysis was calculated using the formula [(experimental−spontaneous release/total−spontaneous release)×100] and expressed as the mean of triplicate.

[3] = antibody-coated beads, anti-CD3 plus anti-CD277
[4] = with anti-CD3 plus anti-CD28, 2, 5, 10 and 30 minutes, dose and time dependent
[5] = with anti-NKp46 or anti-CD16, data not shown

B1: mAb 20.1: murine anti-CD277 antibody obtainable from the hybridoma CNCM I-4402; agonist (antibody, V domains shown)
VH: QVQLQQSGAELVKPGASVKLSCKASGYTFTRYYLYWVKQRPGQGLEWIGEINPNNGGTKFNEKFKSKATLTVDKSSRTTYIQLSSLTSEDSAVYYCSREDDYDGTPDAMDYWGQGTAVTVSS
VL: DIQMNQSPSSLSASLGDTITITCHASQNINLWLSWYQQRPGNIPKLLIYRASNLHTGVPSRFSGSGSATGFTLTISSLQPEDIATYYCQQGHSYPYTFGGGTKLDIK
With B1 the “phosphorylation of AKT” value (CD4+ T cells [1]; [3]) was “induced the phosphorylation”, the “phosphorylation of ERK” value (CD4+ T cells [1]; [3]) was “induced the phosphorylation” and the “phosphorylation of AKT induced by CD3+CD28 stimulation” value (CD4+ T cells [1]; [4]) was “strongly up regulated”. For the same molecule, the “phosphorylation of ERK induced by CD3+CD28 stimulation” value (CD4+ T cells [1]; [4]) was “strongly up regulated”, the “secretion of cytokines induced by anti-CD3 and anti-CD28 stimulation (INFg, IL-2, IL-10)” value (CD4+ T cells [2]; dose-dependent, supernatants day 2) was “increased” and the “cells entered division (CFSE dilution)” value (CD4+ T cells [2]; with anti-CD3 plus anti-CD28 on beads, day 5, anti-CD277 at 17 μg/ml) was 90%. For the same molecule, the “NK cell stimulation by CD277 mAb alone” value (NK cells; P815 redirected assay) was “did not have any effect”, the “NK cell IFN-γ secretion, co-stimulation of NKp46 or CD16” value (NK cells; [5]) was “not affected” and the “NK cell cytotoxicity, co-stimulation of NKp46 or CD16” value (NK cells; [5]) was “not affected”. For the same molecule, the “NK cells-mediated AML blasts lysis” value (primary AML blasts) was “no effect”.
